Test results from PMC11272584 (Nature Metabolism, 2024).
Positions count from the first letter of the chain named. Names and notes keep the numbering of the source.

B1: E461* (protein)
chain: RAETGSKGQTAGELYQRWERYRRECQETLAAAEPPSGLACNGSFDMYVCWDYAAPNATARASCPWYLPWHHHVAAGFVLRQCGSDGQWGLWRDHTQCENPEKNEAFLDQRLILERLQVMYTVGYSLSLATLLLALLILSLFRRLHCTRNYIHINLFTSFMLRAAAILSRDRLLPRPGPYLGDQALALWNQALAACRTAQIVTQYCVGANYTWLLVEGVYLHSLLVLVGGSEEGHFRYYLLLGWGAPALFVIPWVIVRYLYENTQCWERNEVKAIWWIIRTPILMTILINFLIFIRILGILLSKLRTRQMRCRDYRLRLARSTLTLVPLLGVHEVVFAPVTEEQARGALRFAKLGFEIFLSSFQGFLVSVLYCFINKEVQSEIRRGWHHCRLRRSLGEEQRQLPERAFRALPSGSGPGEVPTSRGLSSGTLPGPGNEASR
B2: E463Q (protein)
chain: RAETGSKGQTAGELYQRWERYRRECQETLAAAEPPSGLACNGSFDMYVCWDYAAPNATARASCPWYLPWHHHVAAGFVLRQCGSDGQWGLWRDHTQCENPEKNEAFLDQRLILERLQVMYTVGYSLSLATLLLALLILSLFRRLHCTRNYIHINLFTSFMLRAAAILSRDRLLPRPGPYLGDQALALWNQALAACRTAQIVTQYCVGANYTWLLVEGVYLHSLLVLVGGSEEGHFRYYLLLGWGAPALFVIPWVIVRYLYENTQCWERNEVKAIWWIIRTPILMTILINFLIFIRILGILLSKLRTRQMRCRDYRLRLARSTLTLVPLLGVHEVVFAPVTEEQARGALRFAKLGFEIFLSSFQGFLVSVLYCFINKEVQSEIRRGWHHCRLRRSLGEEQRQLPERAFRALPSGSGPGEVPTSRGLSSGTLPGPGNEASRELQSYC
B3: T25R (protein)
chain: B2 chain with T4R, Q442E
B4: R43G (protein)
chain: B2 chain with R22G, Q442E
B5: R38L (protein)
chain: B2 chain with R17L, Q442E

Legend:
[1] = molecular target: GIPR C84Pfs*70; test: Homologous competition binding; parameters: species or system human; key: NB: no binding; conditions: n = 3
Procedure: (§1) Binding experiments were performed simultaneously with the same transiently transfected HEK293 cells used for the cAMP experiments to enable the correlation of receptor expression with signalling between assays. In brief, 1 day before the assay, the transfected cells were seeded in a clear 96-well plate. […] On the assay day, the cells were washed twice with 4 °C binding buffer (50 mM HEPES buffer (pH 7.2), 1 mM CaCl2, 5 mM MgCl2 and 0.5% (wt/vol) bovine serum albumin) and incubated for 15 minutes at 4 °C. […] After incubation, the cells were washed in ice-cold binding buffer and lysed with 200 mmol l^−1 NaOH with 1% sodium dodecyl sulphate for 30 min. The gamma radiation was measured with a 2470 Wizard2 Automatic Gamma Counter.
(§2) To obtain Emax, EC50, Bmax, Kd and IC50 values, we analysed the data with the non-linear regression curve fitting program GraphPad Prism Software 9 (GraphPad).
(§3) The Bmax was calculated according to the following equation[51]: Bmax=B0×IC50/[L] in which B0 represents the total specific binding and [L] is the ligand concentration. The equilibrium dissociation constant (Kd) was obtained with the equation[51]: Kd=IC50−[L]

[2] = molecular target: GIPR Y258Sfs*50; test: Homologous competition binding; parameters: species or system human; key: NB: no binding; conditions: n = 4
Procedure: as §1, §2, §3

[3] = test system: GIPR W90Lfs*17; test: cAMP accumulation; type: cell-based, human; conditions: normalized to WT efficacy at 100 pM; n = 5
Procedure: HEK293 (CRL-1573, American Type Culture Collection) and β-arrestin 1/2 knockout cells, generated from HEK293A[48], were used for cAMP measurement, homologues competition binding and β-arrestin 2 recruitment. For the internalization assay, endosomal signalling and basal receptor localization experiments, HEK293A (R70507, Thermo Fisher) cells were used. Both cell lines were cultured at 5% CO2 at 37 °C in Roswell Park Memorial Institute GlutaMAX-I supplemented with 10% fetal bovine serum, 180 units ml^−1 penicillin, and 45 g ml^−1 streptomycin. For the cAMP and binding experiments, cells were transfected with the calcium phosphate precipitation method[49]. The polyethyleneimine (PEI) transfection method was used for the β-arrestin 2 recruitment assays[50], endosomal signalling and basal receptor localization assays, while the lipofectamine transfection method was used for the internalization assay.
(§4) cAMP production was measured with the DiscoverX Hithunter cAMP assay according to the manufacturer’s protocol (DiscoverX). […] On the day of the assay, the cells were washed twice with HEPES-buffered saline (HBS) and incubated with HBS and 1 mM 3-isobutyl-1-methylxanthine for 30 min at 37 °C. […] After a 3-h incubation on a shaking table in the dark, the cAMP accumulation was measured based on luminescence with a Perkin Elmer EnVision 2104 Multilabel Microplate Reader. […]

[4] = test system: GIPR W90Lfs*17; test: Homologous competition binding; parameters: species or system human; conditions: normalized to WT GIPR; SEM 0.5, n = 3
Procedure: as §1, §2, §3

[5] = molecular target: T1, GIPR E461* (Homo sapiens, UniProt P48546); test: cAMP accumulation; type: cell-based
T1 construct: host or cells: HEK293
T1 sequence (P48546 22-460 limits assumed): B1 chain
Procedure: (§5) HEK293 (CRL-1573, American Type Culture Collection) and β-arrestin 1/2 knockout cells, generated from HEK293A[48], were used for cAMP measurement, homologues competition binding and β-arrestin 2 recruitment. […] Both cell lines were cultured at 5% CO2 at 37 °C in Roswell Park Memorial Institute GlutaMAX-I supplemented with 10% fetal bovine serum, 180 units ml^−1 penicillin, and 45 g ml^−1 streptomycin. For the cAMP and binding experiments, cells were transfected with the calcium phosphate precipitation method[49].
(§6) cAMP production was measured with the DiscoverX Hithunter cAMP assay according to the manufacturer’s protocol (DiscoverX). […] On the day of the assay, the cells were washed twice with HEPES-buffered saline (HBS) and incubated with HBS and 1 mM 3-isobutyl-1-methylxanthine for 30 min at 37 °C. […] After the incubation, the assay medium was removed from the plate and the cells were washed with 30 µl PBS and treated with 40 µl enzyme donor–lysis buffer–chemiluminescent reagents and 10 µl cAMP antibodies for 60 min before 40 µl enzyme acceptor solution added. After a 3-h incubation on a shaking table in the dark, the cAMP accumulation was measured based on luminescence with a Perkin Elmer EnVision 2104 Multilabel Microplate Reader.

[6] = test system: GIPR variants (groups); test: cAMP accumulation; type: cell-based, human; conditions: for In vitro groups (cAMP): cAMP part of the in vitro group; for percentage_camp: cAMP production compared with WT; for Beta, cAMP: in vitro cAMP production per GIPR variant
[7] = test system: GIPR variants (groups); test: β-arrestin 2 recruitment (BRET); conditions: for In vitro groups (β-arrestin): arr part of the in vitro group; for Beta, Barr: in vitro β-arrestin recruitment per GIPR variant;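 as to all read-outs here: BRET readout of β-arrestin 2 recruitment in transiently transfected HEK293 cells expressing WT GIPR or a GIPR variant plus GPCR kinase 2, Rluc8 donor and citrine acceptor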
[8] = molecular target: T2, GIPR E463Q (Homo sapiens, UniProt P48546, E463Q); test: cAMP accumulation; type: cell-based
T2 construct: host or cells: HEK293
T2 sequence (P48546 22-466 E463Q): B2 chain
Procedure: as §5, §6

[9] = molecular target: T3, GIPR T25R (Homo sapiens, UniProt P48546, T25R); test: cAMP accumulation; type: cell-based
T3 construct: host or cells: HEK293
T3 sequence (P48546 22-466 T25R): B2 chain with T4R, Q442E
Procedure: as §5
cAMP production was measured with the DiscoverX Hithunter cAMP assay according to the manufacturer’s protocol (DiscoverX). […] On the day of the assay, the cells were washed twice with HEPES-buffered saline (HBS) and incubated with HBS and 1 mM 3-isobutyl-1-methylxanthine for 30 min at 37 °C. […] After the incubation, the assay medium was removed from the plate and the cells were washed with 30 µl PBS and treated with 40 µl enzyme donor–lysis buffer–chemiluminescent reagents and 10 µl cAMP antibodies for 60 min before 40 µl enzyme acceptor solution added. After a 3-h incubation on a shaking table in the dark, the cAMP accumulation was measured based on luminescence with a Perkin Elmer EnVision 2104 Multilabel Microplate Reader. […]

[10] = molecular target: T4, GIPR R43G (Homo sapiens, UniProt P48546, R43G); test: cAMP accumulation; type: cell-based
T4 construct: host or cells: HEK293
T4 sequence (P48546 22-466 R43G): B2 chain with R22G, Q442E
Procedure: as §5, §6

[11] = molecular target: T5, GIPR R38L (Homo sapiens, UniProt P48546, R38L); test: cAMP accumulation; type: cell-based
T5 construct: host or cells: HEK293
T5 sequence (P48546 22-466 R38L): B2 chain with R17L, Q442E
Procedure: HEK293 (CRL-1573, American Type Culture Collection) and β-arrestin 1/2 knockout cells, generated from HEK293A[48], were used for cAMP measurement, homologues competition binding and β-arrestin 2 recruitment. […] Both cell lines were cultured at 5% CO2 at 37 °C in Roswell Park Memorial Institute GlutaMAX-I supplemented with 10% fetal bovine serum, 180 units ml^−1 penicillin, and 45 g ml^−1 streptomycin. For the cAMP and binding experiments, cells were transfected with the calcium phosphate precipitation method[49]. The polyethyleneimine (PEI) transfection method was used for the β-arrestin 2 recruitment assays[50], endosomal signalling and basal receptor localization assays, while the lipofectamine transfection method was used for the internalization assay.
as §4

Molecule	Kd (Binding) [1]	Binding (Bmax) ([1]; normalized to WT GIPR)	Kd (Binding) [2]	Binding (Bmax) ([2]; normalized to WT GIPR)	cAMP (Efficacy of 100 pM) [3]	Binding (Bmax) [4]	Efficacy at 100pmol (cAMP) [5]	In vitro groups (cAMP) [6]	percentage_camp [6] [% cAMP]	In vitro groups (β-arrestin) [7]	Efficacy at 100pmol (cAMP) [8]	Beta, cAMP [6]	Beta, Barr [7]	Efficacy at 100pmol (cAMP) [9]	Efficacy at 100pmol (cAMP) [10]	Efficacy at 100pmol (cAMP) [11]
GIP(1-42)	NB	NB	NB	NB	0.531	1.36	–	–	–	–	–	–	–	–	–	–
B1	–	–	–	–	–	–	1.495	GoF_camp	>50	WT-like_arr	–	–	–	–	–	–
B2	–	–	–	–	–	–	–	WT-like_camp	>50	WT-like_arr	0.9097	0.9097	0.4933	–	–	–
B3	–	–	–	–	–	–	–	WT-like_camp	>50	LoF_arr	–	0.6972	0.193	0.6972	–	–
B4	–	–	–	–	–	–	–	WT-like_camp	>50	LoF_arr	–	1.1583	0.4783	–	1.1583	–
B5	–	–	–	–	–	–	–	WT-like_camp	>50	WT-like_arr	–	0.843	0.8228	–	–	0.843
